# From article doi:10.1101/2025.11.17.688911 (2025)
# B1: MAP9-MTBD (Human MAP9 (302–647)::GFP::strepII) (domain or fragment)
# chain: SKESQVTADDLEEEKAKAELIMDDDRTVDPLLSKSQSILISTSATASSKKTIEDRNIKNKKSTNNRASSASARLMTSEFLKKSSSKRRTPSTTTSSHYLGTLKVLDQKPSQKQSIEPDRADNIRAAVYQEWLEKKNVYLHEMHRIKRIESENLRIQNEQKKAAKREEALASFEAWKAMKEKEAKKIAAKKRLEEKNKKKTEEENAARKGEALQAFEKWKEKKMEYLKEKNRKEREYERAKKQKEEETVAEKKKDNLTAVEKWNEKKEAFFKQKEKEKINEKRKEELKRAEKKDKDKQAINEYEKWLENKEKQERIERKQKKRHSFLESEALPPWSPPSRTVFAKVF
# Molecular target: surface-immobilized biotinylated microtubules (pig, UniProt Q2XVP4 1-451; Q767L7 1-444, biotin (site not stated) | biotin (site not stated))
# Sequence (Q2XVP4 whole entry, chain 1 of 2): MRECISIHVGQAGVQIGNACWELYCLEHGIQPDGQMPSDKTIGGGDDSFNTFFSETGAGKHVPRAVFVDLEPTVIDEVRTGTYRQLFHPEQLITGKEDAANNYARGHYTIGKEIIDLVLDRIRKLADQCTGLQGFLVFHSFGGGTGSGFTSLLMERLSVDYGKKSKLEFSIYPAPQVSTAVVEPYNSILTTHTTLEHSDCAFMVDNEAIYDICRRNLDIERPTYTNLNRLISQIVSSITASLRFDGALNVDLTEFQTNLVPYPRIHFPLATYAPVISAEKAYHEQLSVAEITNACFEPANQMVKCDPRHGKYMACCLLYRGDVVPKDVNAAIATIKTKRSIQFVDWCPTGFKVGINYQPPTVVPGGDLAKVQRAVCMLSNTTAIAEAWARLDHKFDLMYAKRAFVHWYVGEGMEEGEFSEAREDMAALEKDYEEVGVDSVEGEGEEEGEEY
# Sequence (Q767L7 other isoform, or with tags, fused parts or gaps, chain 2 of 2): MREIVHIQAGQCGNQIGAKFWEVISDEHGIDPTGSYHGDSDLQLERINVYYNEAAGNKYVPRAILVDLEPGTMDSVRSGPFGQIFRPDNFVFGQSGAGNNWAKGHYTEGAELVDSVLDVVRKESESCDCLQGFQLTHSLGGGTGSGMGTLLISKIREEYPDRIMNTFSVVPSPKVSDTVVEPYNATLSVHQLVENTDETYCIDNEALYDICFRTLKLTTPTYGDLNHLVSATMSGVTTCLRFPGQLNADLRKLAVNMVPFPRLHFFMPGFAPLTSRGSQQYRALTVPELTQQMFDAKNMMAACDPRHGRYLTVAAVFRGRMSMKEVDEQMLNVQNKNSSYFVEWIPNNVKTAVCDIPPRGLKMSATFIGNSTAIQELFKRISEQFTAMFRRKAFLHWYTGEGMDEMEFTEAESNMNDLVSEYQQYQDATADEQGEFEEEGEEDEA
binder,measurement,value
B1,Kd,43 nM
